Assay results as given in US9932404B2.

Molecular target: full length human TLR3 (human)

## TLR3.7 (eBiosciences, cat no 14-9039) (antibody)
  % inhibition of poly(I:C)-induced NF-κB luciferase reporter: 8%
